B1: Hammerhead Ribozyme (parent)
chain: ACCGGAUGUGCUUUCCGGUCUGAUGAGUCCGUGAGGACGAAACAG

The values that follow come from the RNAGym collection of RNA variant scans (doi:10.7554/elife.80360).

The data set covers variants of B1. Kind of data set: self-cleavage, relative activity (ratio to wild type); higher = more cleavage; co-transcriptional.
Take U21A C29A: the self-cleavage worked out at 0.31.
Next, U21A C29G: 0.354; U21A C29U: 0.558.
Next, U21A C43A: 0.349; U21A C43G: 0.32.
Next, U21A C43U: 0.398.
In the case of C20U G31A, the self-cleavage was 0.783.
Next, C20U G31C: 0.489.
With C20U G31U, the self-cleavage amounted to 0.718.
For U21C C38G the value was 0.659.
Next, U21C C38U: 0.629.
Next, U21C C38A: 0.711; U21C G25U: 0.342; U21C G25A: 0.336.
Turning to U21C G25C, the self-cleavage is 0.308.
Next, U21A A42C: 0.382.
For U21A A42U the value was 0.402; for U21A A42G, 0.307.
Next, C20U U21G: 0.362.
C20U U21A: the self-cleavage was 0.358.
For C20U U21C the value was 0.531; for C20U U24G, 0.714; for C20U U24A, 0.799.
As to C20U U24C, the self-cleavage amounted to 0.508.
In the case of C20U G35A, the self-cleavage came out at 0.412.
Next, C20U G35U: 0.347; C20U G35C: 0.407; U21A U28A: 0.46.
Next, U21A U28G: 0.392; U21A U28C: 0.529; U21C G22U: 0.277.
For U21C G22C the value was 0.39; for U21C G22A, 0.335; for C20U G22C, 0.377.
Turning to C20U G22U, the self-cleavage came to 0.341.
Next, C20U G22A: 0.338; U21A A26C: 0.299.
Next, U21A A26U: 0.356; U21A A26G: 0.346; U21A G27A: 0.363.
Next, U21A G27C: 0.296; U21A G27U: 0.294; U21C A34C: 0.316.
As for U21C A34U, the self-cleavage stood at 0.749.
For the variant U21C A34G, the self-cleavage is 0.653.
Turning to C20U C43U, the self-cleavage is 0.325.
Next, C20U C43G: 0.278; C20U C43A: 0.264; U21A A44U: 0.283.
For U21A A44C the value was 0.415; for U21A A44G, 0.932; for U21A A37U, 0.502.
Next, U21A A37G: 0.365.
For the variant U21A A37C, the self-cleavage came out at 0.529.
Next, C20U G25A: 0.756; C20U G25U: 0.328.
As for C20U G25C, the self-cleavage stood at 0.273.
For U21A G31A, the self-cleavage is 0.634.
For U21A G31U the value was 0.554.
On to U21A G31C, for which the self-cleavage was 0.532.
Next, U21C A44C: 0.454.
Next, U21C A44U: 0.571; U21C A44G: 0.852.
For U21A G33U the value was 0.55; for U21A G33A, 0.808; for U21A G33C, 0.584.
With U21A U24G, the self-cleavage was 0.516.
Next, U21A U24C: 0.329; U21A U24A: 0.652.
For U21C C43U the value was 0.487; for U21C C43A, 0.216; for U21C C43G, 0.415.
On to U21C C30U, for which the self-cleavage was 0.891.
For U21C C30G the value was 0.403; for U21C C30A, 0.494.
Consider U21C A40G, for which the self-cleavage was 0.371.
On to U21C A40U, for which the self-cleavage was 0.274.
Next, U21C A40C: 0.393.
Next, U21A A34C: 0.439.
For U21A A34U the value was 0.359; for U21A A34G, 0.387; for U21A C38U, 0.401.
For the variant U21A C38G, the self-cleavage came out at 0.378.
Turning to U21A C38A, the self-cleavage came to 0.363.
Turning to C20U C30A, the self-cleavage turned out to be 0.464.
Next, C20U C30U: 0.594; C20U C30G: 0.398.
Next, U21A A41C: 0.437; U21A A41U: 0.325.
With U21A A41G, the self-cleavage was determined as 0.401.
For C20U G36C the value was 0.327; for C20U G36U, 0.359.
For C20U G36A the value was 0.36; for U21A U32G, 0.515; for U21A U32C, 0.508.
For U21A U32A the value was 0.539; for U21A G36U, 0.418; for U21A G36A, 0.41.
As to U21A G36C, the self-cleavage was 0.283.
Next, U21C A42U: 0.318; U21C A42G: 0.323; U21C A42C: 0.28.
Next, U21A G25A: 0.334; U21A G25C: 0.312; U21A G25U: 0.333.
Consider C20U C29U, for which the self-cleavage turned out to be 0.395.
For C20U U32G the value was 0.494; for C20U U32C, 0.395.
Consider C20U U32A, for which the self-cleavage came to 0.506.
For U21A G39C the value was 0.32.
U21A G39U: the self-cleavage came to 0.301.
Next, U21A G39A: 0.311; C20U G33C: 0.682.
Next, C20U G33U: 0.762; C20U G33A: 0.867.
Next, U21A G45U: 0.432; U21A G45C: 0.335.
Turning to U21A G45A, the self-cleavage was 0.329.
For U21A A23G the value was 0.419.
With U21A A23C, the self-cleavage was 0.474.
For U21A A23U the value was 0.34; for U21A A40U, 0.338.
For U21A A40C, the self-cleavage amounted to 0.315.
Turning to U21A A40G, the self-cleavage was found to be 0.271.
Next, U21C C29U: 0.84.
In the case of U21C C29A, the self-cleavage is 0.37.
Next, U21C C29G: 0.507; C20U G27C: 0.409.
For C20U G27U the value was 0.332.
In the case of C20U G27A, the self-cleavage was determined as 0.373.
Next, U21A: 0.687; U21C: 0.877; U21C A41C: 0.329.
Next, U21C A41U: 0.469; U21C A41G: 0.297; C20U G45C: 0.471.
For C20U G45A the value was 0.359; for C20U G45U, 0.387; for U21A G22A, 0.35.
As to U21A G22U, the self-cleavage worked out at 0.407.
Turning to U21A G22C, the self-cleavage is 0.31.
Next, C20U C38A: 0.336; C20U C38U: 0.501; C20U C38G: 0.298.
For U21C A26G the value was 0.295; for U21C A26U, 0.503.
For U21C A26C the value was 0.404; for U21A C30U, 0.57; for U21A C30A, 0.511.
Regarding U21A C30G, the self-cleavage stood at 0.448.
Consider U21C G27C, for which the self-cleavage turned out to be 0.557.
Next, U21C G27A: 0.597; C20U G39U: 0.335.
For C20U G39C the value was 0.362; for C20U G39A, 0.383.
For C20U U28A the value was 0.621; for C20U U28C, 0.661.
Turning to C20U U28G, the self-cleavage was 0.596.
Next, U21A G35A: 0.52; U21A G35U: 0.466; U21A G35C: 0.492.
Next, U21C A37C: 0.907.
On to U21C A37G, for which the self-cleavage is 0.866.
As to U21C A37U, the self-cleavage was found to be 0.72.
Regarding U21C A23C, the self-cleavage was 0.771.
For U21C A23G the value was 0.354.
On to U21C A23U, for which the self-cleavage is 0.708.
